These are literature values, as cited in article PMC3277744.

In this data set the target is Bcl-XL (Homo sapiens) (UniProt Q07817).

pKd: −log10 of the molar value.

Chain of Bcl-XL (Homo sapiens) (Q07817 whole entry): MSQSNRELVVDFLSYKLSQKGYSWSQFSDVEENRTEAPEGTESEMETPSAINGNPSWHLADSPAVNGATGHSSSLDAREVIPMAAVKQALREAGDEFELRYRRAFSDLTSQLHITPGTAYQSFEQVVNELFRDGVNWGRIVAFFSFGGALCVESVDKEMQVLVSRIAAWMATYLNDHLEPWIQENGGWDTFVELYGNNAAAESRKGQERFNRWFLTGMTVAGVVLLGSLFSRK

As for p53 (from UniProt P04637), the negative-log Kd (pKd) was 6.79.
